Like-named read-outs stand apart in the source and are kept apart here.
T1: NCK1 SH3-2 domain (human)
T1 chain: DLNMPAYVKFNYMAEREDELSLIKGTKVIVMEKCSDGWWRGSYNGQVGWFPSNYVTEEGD


Columns and labels:
Experiment in all cases: ITC
NCK1 SH3-2 domain [1] = target: T1, NCK1 SH3-2 domain
NCK1 SH3-2 domain [2] = target: T1, NCK1 SH3-2 domain
NCK1 SH3-2 domain [3] = target: T1, NCK1 SH3-2 domain
NCK1 SH3-2 domain [4] = target: T1, NCK1 SH3-2 domain

| Kd (NCK1 SH3-2 domain [1]) [µM] | Kd (NCK1 SH3-2 domain [2]) [µM] | Binder | also measured |
| --- | --- | --- | --- |
| < 300 |  | Ac-PPPEHIPAPPRPPKR-NH2 [MSJ019] |  |
|  | < 300 | Ac-PPTPPKR-NH2 [MH114] |  |
|  |  | Ac-PPRPPKRK-NH2 [MH148] | Kd (NCK1 SH3-2 domain [3]): < 300 µM |
|  |  | Ac-PPRPPKRR-NH2 [MH139] | Kd (NCK1 SH3-2 domain [3]): < 300 µM |
|  | < 300 | Ac-PPQPPKR-NH2 [MH087] |  |
|  |  | Ac-PPRPPKRF-NH2 [MH150] | Kd (NCK1 SH3-2 domain [3]): < 300 µM |
|  | < 300 | Ac-PPSPPKR-NH2 [MH059] |  |
|  | > 600 | Ac-PPGPPKR-NH2 [MH092] |  |
| > 1000 |  | Ac-PPPEHIPPPPRPAKR-NH2 [MH005] |  |
| > 1000 |  | Ac-PPPEHIPPPARPPKR-NH2 [MH002] |  |
|  | < 300 | Ac-PPEPPKR-NH2 [MH058] |  |
|  | < 300 | Ac-PPKPPKR-NH2 [MH055] |  |
| < 300 |  | Ac-PPPEAIPPPPRPPKR-NH2 [MSJ016] |  |
|  |  | Ac-PPRPPKRW-NH2 [MH154] | Kd (NCK1 SH3-2 domain [3]): < 300 µM |
|  |  | Ac-PPRPPKRL-NH2 [MH147] | Kd (NCK1 SH3-2 domain [3]): < 300 µM |
| < 300 |  | Ac-PAPEHIPPPPRPPKR-NH2 [MSJ013] |  |
|  |  | Ac-PPRPPKRH-NH2 [MH146] | Kd (NCK1 SH3-2 domain [3]): < 300 µM |
| < 300 |  | Ac-PPPEHAPPPPRPPKR-NH2 [MSJ017] |  |
|  |  | Ac-PPRPPKRY-NH2 [MH155] | Kd (NCK1 SH3-2 domain [3]): < 300 µM |
| < 300 |  | Ac-APPEHIPPPPRPPKR-NH2 [MSJ012] |  |
|  |  | Ac-PPRPPKRA-NH2 [MH138] | Kd (NCK1 SH3-2 domain [3]): < 300 µM |
| < 300 |  | Ac-PPPEHIPPAPRPPKR-NH2 [MH001] |  |
|  | < 300 | Ac-PPVPPKR-NH2 [MH124] |  |
|  | < 300 | Ac-PPMPPKR-NH2 [MH110] |  |
|  |  | Ac-PPRPPKRC-NH2 [MH142] | Kd (NCK1 SH3-2 domain [3]): < 300 µM |
| < 300 |  | Ac-PPPEHIPPPPRAPKR-NH2 [MH004] |  |

| Kd (NCK1 SH3-2 domain [1]) [µM] | Kd (NCK1 SH3-2 domain [2]) [µM] | Binder | also measured |
| --- | --- | --- | --- |
|  | < 300 | Ac-PPYPPKR-NH2 [MH120] |  |
|  |  | Ac-PPRPPKRD-NH2 [MH141] | Kd (NCK1 SH3-2 domain [3]): < 300 µM |
| < 300 |  | Ac-PPPEHIPPPPAPPKR-NH2 [MH003] |  |
|  | < 300 | Ac-PPIPPKR-NH2 [MH096] |  |
| < 300 |  | Ac-PPPAHIPPPPRPPKR-NH2 [MSJ015] |  |
| < 300 |  | Ac-PPPEHIAPPPRPPKR-NH2 [MSJ018] |  |
|  | < 300 | Ac-PPDPPKR-NH2 [MH084] |  |
|  |  | Ac-PPRPPKRG-NH2 [MH145] | Kd (NCK1 SH3-2 domain [3]): < 300 µM |
| < 300 |  | Ac-PPPEHIPPPPRPPKR-NH2 [MD17] |  |
| < 300 |  | Ac-PPAEHIPPPPRPPKR-NH2 [MSJ014] |  |
|  |  | Ac-PPRPPKRS-NH2 [MH152] | Kd (NCK1 SH3-2 domain [3]): < 300 µM |
|  | < 300 | Ac-PPFPPKR-NH2 [MH066] |  |
|  | < 300 | Ac-PPLPPKR-NH2 [MH100] |  |
|  |  | Ac-PPRPPIR-NH2 [MH098] | Kd (NCK1 SH3-2 domain [4]): < 300 µM |
|  | < 300 | Ac-PPNPPKR-NH2 [MH060] |  |
|  |  | Ac-PPRPPNR-NH2 [MH053] | Kd (NCK1 SH3-2 domain [4]): < 300 µM |
|  | < 300 | Ac-PPHPPKR-NH2 [MH057] |  |
|  | < 300 | Ac-PPPPPKR-NH2 [MH106] |  |
| < 300 |  | Ac-PPPEHIPPPPRPPAR-NH2 [MH006] |  |
|  |  | Ac-PPRPPKRP-NH2 [MH151] | Kd (NCK1 SH3-2 domain [3]): < 600 µM |
| > 1000 |  | Ac-PPPEHIPPPPRPPKA-NH2 [MH007] |  |
|  |  | Ac-PPRPPKRM-NH2 [MH149] | Kd (NCK1 SH3-2 domain [3]): < 300 µM |
|  | < 600 | Ac-PPWPPKR-NH2 [MH056] |  |
|  |  | Ac-PPRPPKRN-NH2 [MH140] | Kd (NCK1 SH3-2 domain [3]): < 300 µM |
|  | < 300 | Ac-PPCPPKR-NH2 [MH061] |  |

Source: US20260365696A1, “INHIBITORS OF PTP1B / NCK1 INTERACTION AND METHODS OF MAKING AND USING SAME” (Radella Pharmaceuticals LLC, priority 2023, published 2026)
